“Also recorded” adds a separate entry of the source. Where two headings read alike, the source gives them in different places. Where a SMILES comes first, the peptide text is derived from it. [ ]: non-standard residue; d: D form. The star is where a group is joined. DOTA = O=C(O)CN1CCN(CC(=O)O)CCN(CC(=O)*)CCN(CC(=O)O)CC1; Butanoyl(4-(4-MePh)) = Cc1ccc(CCCC(=O)*)cc1; Nle = CCCC[C@H](N)C(=O)O; Ahx = NCCCCCC(=O)O
Assays:
[1] = system: A431-CCK2R (−)/A431-CCK2R (+) tumor-bearing mice; assay: NanoSPECT/CT imaging of tumor-bearing mice; assay type: in vivo; details: for radiotracer accumulation in the tumor region on NanoSPECT/CT: tail-vein injection, Lu-177-labeled
Method: (§1) To generate A431-CCK2R (+) and A431-CCK2R (−) tumor-bearing mice models, mice (3 per group) were inoculated subcutaneously with 6 × 10^6 cells, which were injected into the inner right back leg for A431-CCK2R (+) tumors and the left back leg for A431-CCK2R (−) tumors, respectively. These xenografts were monitored until the tumor volume reached approximately 200–500 mm^3 [57]. The mice were then randomized to subgroups for further experiments. The formula for calculating tumor volume (V) is V = 4/3πr^3.
The NanoSPECT/CT® plus scanner system (Mediso Medical Imaging Systems; Budapest, Hungary) was utilized to detect in vivo tumors in the in vivo animal models. Both A431-CCK2R (+) and A431-CCK2R (−) cancer cells were inoculated subcutaneously into the inner right leg and left back leg of the mice. Radiopharmaceuticals—[^111In]In-DOTA-PP-F11N, [^111In]In-DOTA-INER-PP-F11N-1, and [^111In]In-DOTA-INER-PP-F11N-2 (1 mCi)—were injected once the mean tumor volume reached approximately 200–500 mm^3. Inhalant (1–2% isoflurane) was used to anesthetize the mice during imaging acquisition. X-ray CT images and SPECT images were taken 4, 24, and 48 h after tail-vein injection. NanoSPECT imaging was acquired using nine multi-pinhole gamma detectors with high-resolution collimators. The energy window was set at 171 and 245 KeV ± 10%, the image size was set at 256 × 256, and the field of view was set at 60 mm × 100 mm.
For Lu-177, only 208 keV photons were used for imaging, with an energy window set at 208 keV ± 10%. Although Lu-177 also emits lower abundance photons at 113 keV, the 208 keV photon provides better image quality due to reduced scatter and higher energy resolution. Therefore, the gamma camera energy windows were specifically tailored to the photon emission profiles of each radionuclide to ensure optimal detection efficiency and image accuracy.
(§2) We investigated therapeutic responses in mice receiving [^177Lu]Lu-DOTA-PP-F11N, [^177Lu]Lu-DOTA-INER-PP-F11N-1, or [^177Lu]Lu-DOTA-INER-PP-F11N-2. A431-CCK2R (+) and A431-CCK2R (−) cells were implanted subcutaneously into the right and left inner hind legs of NOD/SCID mice. Once the tumors reached a volume of 200–500 mm^3, the mice were intravenously injected with either 200 μCi of [^177Lu]Lu-DOTA-PP-F11N, [^177Lu]Lu-DOTA-INER-PP-F11N-1, [^177Lu]Lu-DOTA-INER-PP-F11N-2, or PBS (as a non-radioactive control). The NanoSPECT/CT® plus scanner system (Mediso Medical Imaging Systems; Budapest, Hungary) was utilized to detect and image tumors in the mouse models. Tumor volumes were measured twice a week for 4 weeks.

A431-CCK2R (+) tumors = assay: Therapeutic responses to Lu-177-labeled CCK2R analogs in CCK2R-expressing cancer-bearing mice; assay type: in vivo; details: 200 μCi intravenously
Method: as §1, §2

[2] = Metabolic stability analysis (radio-HPLC) in PBS at 4 °C or FBS at 37 °C; assay type: in vitro ADME
Method: DOTA-PP-F11N, DOTA-INER-PP-F11N-1, and DOTA-INER-PP-F11N-2 were labeled with In-111 and Lu-177 for further experiments. The detection of free In-111 after ITLC extension was defined as 0% radiolabeling efficiency. […]
To measure the labeling efficiency, ITLC was performed on glass microfiber chromatography paper impregnated with a silica gel (Agilent Technologies, Santa Clara, CA, USA) as described previously. Briefly, the ITLC sheets were developed with 10% methanol as solvent (Rf free Lu-177 = 0, Rf Lu-177-labeled compounds = 1) and measured using a radioactive scanner (AR-2000 radio-TLC […] Imaging Scanner, Bioscan, France). The sample was mixed with acetonitrile at a 1:1 (v/v) ratio, followed by centrifugation at 16,000× g for 5 min. The resulting supernatant was subsequently analyzed using HPLC with UV (220[…]) and radio detector with a Zorbax SB-C18 column (Agilent Technologies, Santa Clara, CA, USA). The flow rate was 0.8 mL/min, with the gradient mobile phase going from 90% A […] buffer (0.1% TFA in water) and 10% B buffer (0.1% TFA in acetonitrile) to 90% B buffer […] within 20 min.

A431-CCK2R (−) cells = assay: In vitro binding and internalization assay, A431-CCK2R (−) cells; assay type: cell-based; details: 37 °C
Method: (§3) In vitro binding and internalization activities were measured using a gamma counter (WIZARD 1480, Perkin-Elmer). Briefly, A431-CCK2R (+) and A431-CCK2R (−) cells were seeded on 24-well plates (1 × 10^5 cells/well, Corning, NY, USA) for 12 h. The plated cells were treated with 30 ± 10 GBq/µmol of [^177Lu]Lu-DOTA-PP-F11N, [^177Lu]Lu-DOTA-INER-PP-F11N-1, or [^177Lu]Lu-DOTA-INER-PP-F11N-2 (1 mL/well) and then incubated at 37 °C for either 1 or 4 h. After incubation, the medium was collected, and the cells were then washed with ice-cold buffer. The medium and washed PBS were collected in tube 0. The washed cells were treated with glycine–HCl buffer (0.1 M, pH 3.0) and incubated for 10 min. After incubation, cells were washed again with glycine–HCl buffer. Both glycine-HCl buffer solutions were collected in tube 1. The washed cells were treated with 1 N NaOH (1 mL/well) and incubated for 10 min for cell lysis. After incubation, the cells were washed once with 1 N NaOH. The cell lysate solution was collected in tube 2. All tubes were analyzed using a gamma counter to detect radioactivity. Data were obtained from at least three independent experiments. The respective formulae for in vitro surface binding activity and internalization were as follows:Surface binding = tube 1/(tube 0 + tube 1 + tube 2) × 100%.Internalization = tube 2/(tube 0 + tube 1 + tube 2) × 100%.

A431-CCK2R (+) cells = assay: In vitro binding and internalization assay, A431-CCK2R (+) cells; assay type: cell-based; set-up: surface binding activity / internalization activity: concentration or dose not given beside the values; details: for internalization activity / surface binding activity: A431-CCK2R (+) cells, 37 °C
Method: as §3

[3] = Biodistribution study in tumor-bearing mice; assay type: in vivo; details: mouse, intravenous, total radioactivity, 72 h after tail-vein injection, tumor-bearing mice
Method: as §1
Mice were sacrificed via CO2 asphyxiation 72 h after intravenous injection of 50–100 μCi (50–100 μL) of radiolabeled DOTA-PP-F11N, DOTA-INER-PP-F11N-1, or DOTA-INER-PP-F11N-2 [58]. Tumors and organs of interest were collected for further pathological examinations. The PerkinElmer 2480 Automatic Gamma Counter (PerkinElmer, Waltham, MA, USA) was used to measure radioactivity; the data are presented as the percentage injected dose per gram of tissue (%ID/g).

[4] = Histopathological examinations (H&E) of mice after radiolabeled drug administration; assay type: in vivo; details: light microscopy
Source text: To investigate the pathological alterations in tumor-bearing mice receiving radiopharmaceuticals, […] tissues, including tumors, heart, liver, and kidneys, were collected. The specimens were first fixed using 10% buffered neutral formalin and then embedded in paraffin. Sections of 3–5 μm thickness were stained with H&E and examined using light microscopy (40 × and 20 ×).

[5] = system: pancreatic tumor PDX models; set-up: method as in PMID 34593598; details: cited from earlier work
[6] = 4 °C PBS, 144 h after Lu-177 labeling
[7] = Lu-177-labeled, 37 °C FBS, 144 h
[8] = kidneys, read-out: radiotracer accumulation in the kidneys
[9] = tumor (A431-CCK2R (+)), read-out: tumor uptake of radiopharmaceuticals
[10] = labeled with Lu-177, each time point (Figure 2C, 4 °C PBS)

O=C([O-])CN1CCN(CC(=O)[O-])CCN(CC(=O)[O-])CCN(CC(=O)[O-])CC1.[177Lu+3] [[^177Lu]Lu-DOTA, reference compound]
clearance of radiotracer accumulation in the urinary bladder, time after injection ([1]; NanoSPECT/CT): ≤ 24 h | tumor volume at D23 (A431-CCK2R (+) tumors): 3237.10 ± 846.25 mm^3

CCCC[C@H](NC(=O)[C@H](Cc1c[nH]c2ccccc12)NC(=O)CNC(=O)[C@H](Cc1ccc(O)cc1)NC(=O)[C@H](C)NC(=O)[C@@H](CCC(=O)O)NC(=O)[C@@H](CCC(=O)O)NC(=O)[C@@H](CCC(=O)O)NC(=O)[C@@H](CCC(=O)O)NC(=O)[C@@H](CCC(=O)O)NC(=O)[C@@H](CCC(=O)O)NC(=O)CN1CCN(CC(=O)O)CCN(CC(=O)O)CCN(CC(=O)O)CC1)C(=O)N[C@@H](CC(=O)O)C(=O)N[C@@H](Cc1ccccc1)C(N)=O [[^177Lu]Lu-DOTA-PP-F11N, metal not drawn, reference compound]
metabolic stability [2, 6]: more than 95% | metabolic stability [2, 7]: below 60% | internalization activity (A431-CCK2R (−) cells; 1 h): 1.26 ± 0.06 %IA/106 cells | surface binding activity (A431-CCK2R (−) cells; 1 h): 3.42 ± 0.21 %IA/106 cells | internalization activity (A431-CCK2R (−) cells; 4 h): 1.29 ± 0.01 %IA/106 cells | surface binding activity (A431-CCK2R (−) cells; 4 h): 3.24 ± 0.15 %IA/106 cells | internalization activity (A431-CCK2R (+) cells; 1 h): 37.37 ± 3.04% | surface binding activity (A431-CCK2R (+) cells; 1 h): 6.60 ± 0.17% | internalization activity (A431-CCK2R (+) cells; 4 h): 71.44 ± 3.52% | surface binding activity (A431-CCK2R (+) cells; 4 h): 11.51 ± 3.16% | washout of radiotracer accumulation in both kidneys, time after injection ([1]; NanoSPECT/CT, accumulation from one hour): more than 48 h | radiotracer accumulation in the tumor region on NanoSPECT/CT [1]: relatively low | tissue uptake at 72 h [3, 8]: 14.2 ± 5.9 %ID/g | tissue uptake at 72 h [3, 9]: 0.33 ± 0.02 %ID/g | tumor volume at D23 (A431-CCK2R (+) tumors): 1884.72 ± 333.13 mm^3 | histopathological changes in the kidneys [4]: renal tubular necrosis (arrow 1), moderate renal tubular casts (arrow 2), slight renal tubular degeneration (arrow 3), and neutrophil infiltration (arrow 4); also recorded: moderate/severe renal tubular necrosis (arrow 1), moderate renal tubular casts (arrow 2), slight renal tubular degeneration (arrow 3), and slight infiltration of neutrophils (arrow 4) | histopathological changes in the liver and heart [4]: no significant histopathological changes | histopathological changes in the kidneys ([4]; listed as PP-F11N): renal tubular necrosis and inflammation

DOTA-Lys(-4-TBA)-AHA-(Glu)6-Ala-Tyr-Gly-Trp-Nle-Asp-Phe-NH2 [DOTA-INER-PP-F11N-2]
metabolic stability [2, 10]: more than 90%

Cc1cc(-c2ccc(NC(=O)CCCC(=O)N[C@@H](CCCCNC(=O)CN3CCN(CC(=O)O)CCN(CC(=O)O)CCN(CC(=O)O)CC3)C(=O)N3CCN(CCCOc4ccc5nccc(C(=O)NCC(=O)N6CC(F)(F)C[C@H]6C#N)c5c4)CC3)c(C)c2)ccc1N=Nc1ccc2c(S(=O)(=O)O)cc(S(=O)(=O)O)c(N)c2c1O [TEFAPI-07]
tumor uptake and retention [5]: significantly enhanced tumor uptake and retention

DOTA-(Glu)6-Ala-Tyr-Gly-Trp-Nle-Asp-Phe-NH2 [DOTA-PP-F11N, reference compound]
metabolic stability ([2]; In-111-labeled, 37 °C FBS (Figure 2B)): less metabolic stability | metabolic stability ([2]; Lu-177-labeled, 37 °C FBS, 4 h): 94.6 ± 0.1% | metabolic stability [2, 7]: 56.4 ± 0.1% | metabolic stability [2, 10]: more than 90%

DOTA-Lys(-4-TBA)-6-AMBA-(Glu)6-Ala-Tyr-Gly-Trp-Nle-Asp-Phe-NH2 [DOTA-INER-PP-F11N-1]
metabolic stability [2, 7]: 99% | metabolic stability [2, 10]: more than 90%

CCCC[C@H](NC(=O)[C@H](Cc1c[nH]c2ccccc12)NC(=O)CNC(=O)[C@H](Cc1ccc(O)cc1)NC(=O)[C@H](C)NC(=O)[C@@H](CCC(=O)O)NC(=O)[C@@H](CCC(=O)O)NC(=O)[C@@H](CCC(=O)O)NC(=O)[C@@H](CCC(=O)O)NC(=O)[C@@H](CCC(=O)O)NC(=O)[C@@H](CCC(=O)O)NC(=O)CCCCCNC(=O)[C@H](CCCCNC(=O)CCCc1ccc(C)cc1)NC(=O)CN1CCN(CC(=O)O)CCN(CC(=O)O)CCN(CC(=O)O)CC1)C(=O)N[C@@H](CC(=O)O)C(=O)N[C@@H](Cc1ccccc1)C(N)=O [[^177Lu]Lu-DOTA-INER-PP-F11N-2, metal not drawn] ({DOTA}-K(Butanoyl(4-(4-MePh)))[Ahx][dE][dE][dE][dE][dE][dE]AYGW[Nle]DF-NH2)
metabolic stability [2, 6]: more than 95% | metabolic stability [2, 7]: > 99% | internalization activity (A431-CCK2R (−) cells; 1 h): 0.25 ± 0.04 %IA/106 cells | surface binding activity (A431-CCK2R (−) cells; 1 h): 0.59 ± 0.01 %IA/106 cells | internalization activity (A431-CCK2R (−) cells; 4 h): 0.15 ± 0.18 %IA/106 cells | internalization activity (A431-CCK2R (+) cells; 1 h): 41.58 ± 3.46% | surface binding activity (A431-CCK2R (+) cells; 1 h): 5.51 ± 0.45% | internalization activity (A431-CCK2R (+) cells; 4 h): 81.26 ± 7.27% | surface binding activity (A431-CCK2R (+) cells; 4 h): 8.11 ± 2.65% | enhancement of internalization activity compared with PP-F11N (A431-CCK2R (+) cells; A431 CCK2R (+) cells, compared with conventional [^177Lu]Lu-DOTA-PP-F11N): 13.7% | radioactivity within the kidneys on NanoSPECT/CT ([1]; compared with Lu-177-labeled PP-F11N over the same period): significantly lower | radiotracer accumulation in the tumor region on NanoSPECT/CT [1]: imaging of the tumor was limited | tissue uptake at 72 h [3, 8]: 7.4 ± 1.5 %ID/g | tissue uptake at 72 h [3, 9]: 0.88 ± 0.25 %ID/g | tumor volume at D23 (A431-CCK2R (+) tumors): 1162.60 ± 275.92 mm^3 | histopathological changes in the kidneys [4]: no significant histopathological changes | histopathological changes in the liver and heart [4]: no significant histopathological changes
